The values below are quoted from earlier work in paper PMC3478875.

One may read the Kd as the constant that tells how readily two partners part at equilibrium.

Where two headings read alike, the source gives them in different places.

The target in series [1] is plasminogen (Homo sapiens) (UniProt P00747).
Series [2] shares this target. The source holds these as a separate data set.
Series [3] addresses plasmin (Homo sapiens) (UniProt P00747).
Series [4] has as its target plasminogen (Homo sapiens) (UniProt P00747). This is another data set of the same source.
Series [5] addresses Glu-plasminogen (Homo sapiens) (UniProt P00747).
The target is the same in series [6]. The source holds these as a separate data set.
The target in series [7] is Lys-plasminogen (Homo sapiens) (UniProt P00747).

In the case of DnaK (from UniProt B8DT62), the Kd in series [1] was 0.012 µM.

Turning to “Fructose-1,6-bisphosphate aldolase (from UniProt P9WQA2)”, in series [2], the Kd was 0.00673 µM.

Regarding GAPDH (from UniProt Q59906), the Kd in series [3] was 0.025 µM; in series [4] it was 0.22 µM.

“Outer surface protein A (OspA) (from UniProt Q09087)”: in series [5], the Kd was 260 µM.

For the substance alpha-enolase (from UniProt P69949), the Kd in series [6] was 0.0016 µM; in series [7] it was 0.127 µM.
